Legend:
[1] = biological target: human GLP-1 receptor (GLP-1R) (human) (UniProt P43220)
shrews (Suncus murinus) = assay: Food intake and body weight; type: in vivo; conditions: shrew, albiglutide 0.5 and 5 mg/kg i.p.

UniProt P43220, sequence (P43220 24-463): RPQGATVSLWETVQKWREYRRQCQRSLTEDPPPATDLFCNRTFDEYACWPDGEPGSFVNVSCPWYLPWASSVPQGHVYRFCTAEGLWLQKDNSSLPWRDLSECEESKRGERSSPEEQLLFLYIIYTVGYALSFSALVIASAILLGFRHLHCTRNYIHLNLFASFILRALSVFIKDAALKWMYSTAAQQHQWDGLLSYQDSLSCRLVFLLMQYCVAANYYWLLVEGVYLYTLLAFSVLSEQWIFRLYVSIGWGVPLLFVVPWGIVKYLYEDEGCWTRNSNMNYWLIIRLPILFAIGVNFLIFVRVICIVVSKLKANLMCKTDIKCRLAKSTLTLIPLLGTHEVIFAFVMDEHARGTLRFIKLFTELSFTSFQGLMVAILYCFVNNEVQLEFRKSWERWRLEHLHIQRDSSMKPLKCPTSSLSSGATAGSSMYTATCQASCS

| Substance | EC50 of agonism at the GLP-1R [1] [nM] | anorexia and body-weight loss (shrews (Suncus murinus)) |
| --- | --- | --- |
| HC-Cbi-Ex4 (complex) | 3 | – |
| albiglutide | – | did not cause anorexia and body-weight loss |

— publication PMC7376604 (Cell reports, 2020)
